# Measured values published in US20210340530A1 (INTELLIA THERAPEUTICS, published 2021).
# How the values were obtained:
# [1] = biological target: T1, … (VLD) WT1 peptide pulsed on target cells (HLA-02.01 positive T2 cell line; OCI-AML3); assay: cell-based or functional assay
# [2] = biological target: T2, … (RMF) WT1 peptide pulsed on target cells (HLA-02.01 positive T2 cell line; OCI-AML3); assay: cell-based or functional assay
# [3] = biological target: T1, … (VLD) WT1 peptide pulsed on target …; assay: cell-based or functional assay; remark: listed apart in the source
# [4] = biological target: T1, … (VLD) WT1 peptide pulsed on target …; assay: cell-based or functional assay; remark: listed apart in the source
# [5] = biological target: T1, … (VLD) WT1 peptide pulsed on target …; assay: cell-based or functional assay; remark: listed apart in the source
# [6] = biological target: T2, … (RMF) WT1 peptide pulsed on target …; assay: cell-based or functional assay; remark: listed apart in the source
# [7] = biological target: T1, … (VLD) WT1 peptide pulsed on target …; assay: cell-based or functional assay; remark: listed apart in the source
# [8] = biological target: T2, … (RMF) WT1 peptide pulsed on target …; assay: cell-based or functional assay; remark: listed apart in the source
# [9] = biological target: T3, VLD-Tetramer (pMHC tetramer with WT1 peptide …); assay: flow cytometry, VLD-Tetramer staining of engineered T cells; TRAC RNP only
# T3 construct: Staining reagent; also called VLD (Wilms' tumor antigen) tetramer; TCR specific pMHC tetramer
# Protocol: (§1) Four to 12 days after RNP nucleofection, edited T cells (200 ul/200,000 cells) were collected in a 96 well round bottom plate and spun down at 500 g for 5 minutes. Cells were then resuspended in an antibody mixture containing a combination of antibodies targeting CD3, CD4, CD8, CD45RO, CD45RA, CD27, CCR7, CD62L, and/or the TCR specific pMHC tetramer or TCR specific Vbeta chain antibody. The mixture was incubated for 45 minutes at room temperature in the dark. Samples were spun down at 500 g for 5 minutes, cell pellets collected, and resuspended in 1:10,000 DAPI (Biolegend—#422801) in FACS buffer. Flow cytometry was then performed using the cytoflex according to the manufacturer's instructions.
# (§2) T cells were evaluated with additional engineered TCRs for the impact of endogenous beta chains on pairing of both the inserted alpha chain and inserted beta chain. The experiment was performed as described herein except tetramer staining was used to measure MFI and the AAV inserts in Table 31 were used for transduction.
# [10] = biological target: T3, VLD-Tetramer (pMHC tetramer with WT1 …); assay: flow cytometry, VLD-Tetramer staining of engineered T cells; TRAC + TRBC RNP
# Protocol: as §1, §2
binder,measurement,setting,value
"TCR-A (WT1-specific T-cell receptor) (TCR, P2A remnant on the beta chain is not described; also called AV11-TCR-A; TCR-A (no cys)) TCR alpha: SQQPVQSPQAVILREGEDAVINCSSSKALYSVHWYRQKHGEAPVFLMILLKGGEQKGHEKISASFNEKKQQSSLYLTASQLSYSGTYFCGTAWINDYKLSFGAGTTVTVRANIQNPDPAVYQLRDSKSSDKSVCLFTDFDSQTNVSQSKDSDVYITDKTVLDMRSMDFKSNSAVAWSNKSDFACANAFNNSIIPEDTFFPSPESSCDVKLVEKSFETDTNLNFQNLSVIGFRILLLKVAGFNLLMTLRLWSS TCR beta: DAGVIQSPRHEVTEMGQEVTLRCKPISGHDYLFWYRQTMMRGLELLIYFNNNVPIDDSGMPEDRFSAKMPNASFSTLKIQPSEPRDSAVYFCASRKTGGYSNQPQHFGDGTRLSILEDLKNVFPPEVAVFEPSEAEISHTQKATLVCLATGFYPDHVELSWWVNGKEVHSGVSTDPQPLKEQPALNDSRYCLSSRLRVSATFWQNPRNHFRCQVQFYGLSENDEWTQDRAKPVTQIVSAEAWGRADCGFTSESYQQGVLSATILYEILLGKATLYAVLVSALVLMAMVKRKDSRG",Caspase 3/7 integrated intensity; TRAC only; 0 nM VLD; T2,[1],9040
same,Caspase 3/7 integrated intensity; TRAC only; 0.005 nM VLD; T2,[1],9180
same,Caspase 3/7 integrated intensity; TRAC only; 0.05 nM VLD; T2,[1],16900
same,Caspase 3/7 integrated intensity; TRAC only; 0.5 nM VLD; T2,[1],38800
same,Caspase 3/7 integrated intensity; TRAC only; 5 nM VLD; T2,[1],137000
same,Caspase 3/7 integrated intensity; TRAC only; 50 nM VLD; T2,[1],207000
same,Caspase 3/7 integrated intensity; TRAC only; 500 nM VLD; T2,[1],233000
same,Caspase 3/7 integrated intensity; TRAC/TRBC; 0 nM VLD; T2,[1],381000
same,Caspase 3/7 integrated intensity; TRAC/TRBC; 0.005 nM VLD; T2,[1],374000
same,Caspase 3/7 integrated intensity; TRAC/TRBC; 0.05 nM VLD; T2,[1],1.13e+06
same,Caspase 3/7 integrated intensity; TRAC/TRBC; 0.5 nM VLD; T2,[1],1.17e+06
same,Caspase 3/7 integrated intensity; TRAC/TRBC; 5 nM VLD; T2,[1],1.33e+06
same,Caspase 3/7 integrated intensity; TRAC/TRBC; 50 nM VLD; T2,[1],1.2e+06
same,Caspase 3/7 integrated intensity; TRAC/TRBC; 500 nM VLD; T2,[1],1.57e+06
same,Caspase 3/7 integrated intensity; TRAC only; 500 nM RMF; T2,[2],7340
same,Caspase 3/7 integrated intensity; TRAC/TRBC; 500 nM RMF; T2,[2],280000
same,IL2 release; TRAC only; 0 nM VLD; T2,[3],2.26 pg/mL
same,IL2 release; TRAC only; 0.005 nM VLD; T2,[3],2250 pg/mL
same,IL2 release; TRAC only; 0.05 nM VLD; T2,[3],2050 pg/mL
same,IL2 release; TRAC only; 0.5 nM VLD; T2,[3],2010 pg/mL
same,IL2 release; TRAC only; 5 nM VLD; T2,[3],4270 pg/mL
same,IL2 release; TRAC only; 50 nM VLD; T2,[3],7060 pg/mL
same,IL2 release; TRAC only; 500 nM VLD; T2,[3],8380 pg/mL
same,IL2 release; TRAC/TRBC; 0 nM VLD; T2,[3],314 pg/mL
same,IL2 release; TRAC/TRBC; 0.005 nM VLD; T2,[3],304 pg/mL
same,IL2 release; TRAC/TRBC; 0.05 nM VLD; T2,[3],227 pg/mL
same,IL2 release; TRAC/TRBC; 0.5 nM VLD; T2,[3],200 pg/mL
same,IL2 release; TRAC/TRBC; 5 nM VLD; T2,[3],494 pg/mL
same,IL2 release; TRAC/TRBC; 50 nM VLD; T2,[3],1180 pg/mL
same,IL2 release; TRAC/TRBC; 500 nM VLD; T2,[3],1510 pg/mL
same,IFN-gamma release; TRAC/TRBC; 50 nM VLD; T2,[4],40200
same,IFN-gamma release; TRAC/TRBC; 500 nM VLD; T2,[4],47600
same,IFN-gamma release; only TRAC; 50 nM VLD; T2,[4],28100
same,IFN-gamma release; only TRAC; 500 nM VLD; T2,[4],31500
same,% CD4+ TNFa+ IFNg+; TRAC/TRBC; 0 nM VLD; T2,[5],1.1%
same,% CD4+ TNFa+ IFNg+; TRAC/TRBC; 0.005 nM VLD; T2,[5],1.6%
same,% CD4+ TNFa+ IFNg+; TRAC/TRBC; 0.05 nM VLD; T2,[5],1.2%
same,% CD4+ TNFa+ IFNg+; TRAC/TRBC; 0.5 nM VLD; T2,[5],1.8%
same,% CD4+ TNFa+ IFNg+; TRAC/TRBC; 5 nM VLD; T2,[5],11.1%
same,% CD4+ TNFa+ IFNg+; TRAC/TRBC; 50 nM VLD; T2,[5],25.1%
same,% CD8+ TNFa+ IFNg+; TRAC/TRBC; 0 nM VLD; T2,[5],9.4%
same,% CD8+ TNFa+ IFNg+; TRAC/TRBC; 0.005 nM VLD; T2,[5],21%
same,% CD8+ TNFa+ IFNg+; TRAC/TRBC; 0.05 nM VLD; T2,[5],53%
same,% CD8+ TNFa+ IFNg+; TRAC/TRBC; 0.5 nM VLD; T2,[5],74.3%
same,% CD8+ TNFa+ IFNg+; TRAC/TRBC; 5 nM VLD; T2,[5],79.8%
same,% CD8+ TNFa+ IFNg+; TRAC/TRBC; 50 nM VLD; T2,[5],81.3%
same,% CD4+ TNFa+ IFNg+; TRAC/TRBC; 50 nM RMF; T2,[6],1.6%
same,% CD8+ TNFa+ IFNg+; TRAC/TRBC; 50 nM RMF; T2,[6],10%
same,% CD4+ CD107a+; TRAC/TRBC; 0 nM VLD; T2,[7],4.45%
same,% CD4+ CD107a+; TRAC/TRBC; 0.005 nM VLD; T2,[7],4.64%
same,% CD4+ CD107a+; TRAC/TRBC; 0.05 nM VLD; T2,[7],4.68%
same,% CD4+ CD107a+; TRAC/TRBC; 0.5 nM VLD; T2,[7],4.23%
same,% CD4+ CD107a+; TRAC/TRBC; 5 nM VLD; T2,[7],11.8%
same,% CD4+ CD107a+; TRAC/TRBC; 50 nM VLD; T2,[7],21.1%
same,% CD8+ CD107a+; TRAC/TRBC; 0 nM VLD; T2,[7],21.9%
same,% CD8+ CD107a+; TRAC/TRBC; 0.005 nM VLD; T2,[7],37.3%
same,% CD8+ CD107a+; TRAC/TRBC; 0.05 nM VLD; T2,[7],64.1%
same,% CD8+ CD107a+; TRAC/TRBC; 0.5 nM VLD; T2,[7],73%
same,% CD8+ CD107a+; TRAC/TRBC; 5 nM VLD; T2,[7],75.8%
same,% CD8+ CD107a+; TRAC/TRBC; 50 nM VLD; T2,[7],76.2%
same,% CD4+ CD107a+; TRAC/TRBC; 50 nM RMF; T2,[8],4.3%
same,% CD8+ CD107a+; TRAC/TRBC; 50 nM RMF; T2,[8],22.1%
same,Mean % Tetramer+ (CD4+),[9],7.6%
same,Mean % Tetramer+ (CD8+),[9],12.7%
same,Mean Tetramer MFI (CD4+),[9],10100 MFI
same,Mean Tetramer MFI (CD8+),[9],21900 MFI
same,Mean % Tetramer+ (CD4+),[10],48%
same,Mean % Tetramer+ (CD8+),[10],51.2%
same,Mean Tetramer MFI (CD4+),[10],11300 MFI
same,Mean Tetramer MFI (CD8+),[10],23700 MFI
